System: Escherichia coli TOP10
Experiment: shrunken log2 fold change of peptide-encoding DNA abundance (4.5 h post-induction vs induction); higher = less antimicrobial activity (less host growth inhibition)
Details: time post-induction: 4.5 h; library: site-saturation at positions 5, 18, 19, 20
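Further: peptides expressed intracellularly from a pBAD plasmid library in pooled LB shake-flask culture, induced with 0.3% L-arabinose, DNA abundance read by NGS, three biological replicates, DESeq2 with apeglm shrinkage.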

RRIRARPPRLPRPRPRPSISPRP and RRIRWRPPRLPRPRPRPGPCPRP are within 0.2 log units of each other in “shrunken log2 fold change” value: 0.0682 for the first, 0.101 for the second.

RRIRERPPRLPRPRPRPFVHPRP and RRIRVRPPRLPRPRPRPWVHPRP are within 0.2 log units of each other in “shrunken log2 fold change” value: -0.435 for the first, -0.306 for the second.

Compared with RRIRSRPPRLPRPRPRPTNHPRP, RRIRRRPPRLPRPRPRPLWWPRP is higher in “shrunken log2 fold change” value: -0.344 for the first, 0.48 for the second.

Compared with RRIRGRPPRLPRPRPRPRVPPRP, RRIRGRPPRLPRPRPRPHDDPRP is lower in “shrunken log2 fold change” value: 0.356 for the first, 0.0376 for the second.

Compared with RRIRYRPPRLPRPRPRPMCMPRP, RRIRSRPPRLPRPRPRPCGSPRP is higher in “shrunken log2 fold change” value: -0.214 for the first, 0.102 for the second.

RRIRPRPPRLPRPRPRPCGEPRP and RRIRMRPPRLPRPRPRPMCPPRP are within 0.2 log units of each other in “shrunken log2 fold change” value: -0.0188 for the first, -0.00088 for the second.

RRIRTRPPRLPRPRPRPQDCPRP and RRIRARPPRLPRPRPRPEHYPRP are within 0.2 log units of each other in “shrunken log2 fold change” value: 0.0249 for the first, 0.068 for the second.

RRIRYRPPRLPRPRPRPTYCPRP and RRIRLRPPRLPRPRPRPEIHPRP are within 0.2 log units of each other in “shrunken log2 fold change” value: -0.165 for the first, -0.269 for the second.

First: RRIRVRPPRLPRPRPRPIREPRP
Second: RRIRCRPPRLPRPRPRPNGKPRP
The “shrunken log2 fold change” value of the first is higher: -0.152 for the first, -0.8 for the second.

RRIRHRPPRLPRPRPRPVMIPRP and RRIRVRPPRLPRPRPRPNQRPRP are within 0.2 log units of each other in “shrunken log2 fold change” value: -0.0805 for the first, 0.0593 for the second.

First: RRIRARPPRLPRPRPRPRWTPRP
Second: RRIRKRPPRLPRPRPRPALPPRP
The “shrunken log2 fold change” value of the first is lower: 0.145 for the first, 0.936 for the second.

RRIRTRPPRLPRPRPRPYREPRP and RRIRNRPPRLPRPRPRPLVCPRP are within 0.2 log units of each other in “shrunken log2 fold change” value: -0.196 for the first, -0.201 for the second.

Going from RRIRVRPPRLPRPRPRPQRMPRP to RRIRWRPPRLPRPRPRPYFKPRP, the “shrunken log2 fold change” value falls from 0.0511 to -0.839.

Going from RRIRLRPPRLPRPRPRPVHDPRP to RRIRYRPPRLPRPRPRPCCCPRP, the “shrunken log2 fold change” value rises from -0.458 to -0.211.

Going from RRIRRRPPRLPRPRPRPATMPRP to RRIRFRPPRLPRPRPRPPAIPRP, the “shrunken log2 fold change” value falls from 0.876 to 0.363.

Compared with RRIRNRPPRLPRPRPRPWPQPRP, RRIRNRPPRLPRPRPRPVTFPRP is lower in “shrunken log2 fold change” value: -0.064 for the first, -0.356 for the second.

RRIRRRPPRLPRPRPRPIPKPRP and RRIRRRPPRLPRPRPRPQFCPRP are within 0.2 log units of each other in “shrunken log2 fold change” value: 0.0997 for the first, -0.0309 for the second.

First: RRIRARPPRLPRPRPRPWGTPRP
Second: RRIRMRPPRLPRPRPRPPPGPRP
The “shrunken log2 fold change” value of the first is lower: 0.211 for the first, 1.86 for the second.

Compared with RRIRNRPPRLPRPRPRPQSNPRP, RRIRFRPPRLPRPRPRPIEPPRP is higher in “shrunken log2 fold change” value: -0.428 for the first, 0.242 for the second.

Going from RRIRARPPRLPRPRPRPFLRPRP to RRIRKRPPRLPRPRPRPRNQPRP, the “shrunken log2 fold change” value rises from 0.0973 to 0.493.

RRIRWRPPRLPRPRPRPPMYPRP and RRIRRRPPRLPRPRPRPHMCPRP are within 0.2 log units of each other in “shrunken log2 fold change” value: -0.216 for the first, -0.0222 for the second.

RRIRPRPPRLPRPRPRPEKTPRP and RRIRTRPPRLPRPRPRPECQPRP are within 0.2 log units of each other in “shrunken log2 fold change” value: 0.037 for the first, 0.0443 for the second.

RRIRCRPPRLPRPRPRPGICPRP and RRIRVRPPRLPRPRPRPIELPRP are within 0.2 log units of each other in “shrunken log2 fold change” value: -0.0835 for the first, -0.167 for the second.

Going from RRIRGRPPRLPRPRPRPSYLPRP to RRIRARPPRLPRPRPRPESMPRP, the “shrunken log2 fold change” value rises from -0.479 to 0.77.

Compared with RRIRIRPPRLPRPRPRPWMQPRP, RRIRARPPRLPRPRPRPERSPRP is higher in “shrunken log2 fold change” value: -0.182 for the first, 0.264 for the second.

RRIRWRPPRLPRPRPRPSVEPRP and RRIRKRPPRLPRPRPRPCGHPRP are within 0.2 log units of each other in “shrunken log2 fold change” value: 0.172 for the first, 0.0693 for the second.

First: RRIRKRPPRLPRPRPRPNRRPRP
Second: RRIRNRPPRLPRPRPRPNCEPRP
The “shrunken log2 fold change” value of the first is higher: 0.0646 for the first, -0.185 for the second.

RRIRHRPPRLPRPRPRPYGQPRP and RRIRKRPPRLPRPRPRPLCSPRP are within 0.2 log units of each other in “shrunken log2 fold change” value: -0.00191 for the first, 0.0457 for the second.

First: RRIRGRPPRLPRPRPRPHIAPRP
Second: RRIRTRPPRLPRPRPRPHMEPRP
The “shrunken log2 fold change” value of the first is higher: 2.17 for the first, 0.0103 for the second.

RRIRTRPPRLPRPRPRPYMSPRP and RRIRYRPPRLPRPRPRPQLSPRP are within 0.2 log units of each other in “shrunken log2 fold change” value: -0.0144 for the first, -0.0974 for the second.

Going from RRIRIRPPRLPRPRPRPFGHPRP to RRIRQRPPRLPRPRPRPLVNPRP, the “shrunken log2 fold change” value rises from -0.272 to -0.0122.

Compared with RRIRKRPPRLPRPRPRPKNMPRP, RRIRERPPRLPRPRPRPLTRPRP is higher in “shrunken log2 fold change” value: -0.129 for the first, 0.167 for the second.

RRIRDRPPRLPRPRPRPLPLPRP and RRIRARPPRLPRPRPRPVEIPRP are within 0.2 log units of each other in “shrunken log2 fold change” value: -0.0937 for the first, 0.0505 for the second.

Compared with RRIRRRPPRLPRPRPRPHAQPRP, RRIRTRPPRLPRPRPRPRPLPRP is higher in “shrunken log2 fold change” value: 0.0722 for the first, 0.295 for the second.

First: RRIRDRPPRLPRPRPRPIMLPRP
Second: RRIRWRPPRLPRPRPRPYATPRP
The “shrunken log2 fold change” value of the first is lower: -0.0957 for the first, 0.289 for the second.

Compared with RRIRARPPRLPRPRPRPGPPPRP, RRIRTRPPRLPRPRPRPELTPRP is lower in “shrunken log2 fold change” value: 0.736 for the first, 0.0104 for the second.

Compared with RRIRKRPPRLPRPRPRPIVDPRP, RRIRVRPPRLPRPRPRPKRHPRP is lower in “shrunken log2 fold change” value: 0.234 for the first, 0.0244 for the second.

With RRIRQRPPRLPRPRPRPHYHPRP the “shrunken log2 fold change” value was -0.127.

From the supplement of paper PMC9112550, “Optimization of the antimicrobial peptide Bac7 by deep mutational scanning” (BMC Biology, 2022)
